This note sets out measurements from article PMC8487046.

By koff is commonly meant a measure of how fast the partners let go of each other. Broadly, the kon is the second-order rate constant of association.

The target of this test is acetylated BSA (AcBSA) (bovine (from the name BSA)) (UniProt P02769). The test can be described thus: SPR; AcBSA immobilized (900 RU, CM5, amine coupling; BSA as reference surface), serially diluted SREC-II(44-442) or SR-F1(20-421) injected; TBS-Ca-P; 20 µL/min; 25 °C; global fit, 1:1 Langmuir model; apparent KD. Background: In SPR one partner is held on a chip, and binding of the other changes the refractive index at the surface.

B1: SR‐F1(20‐421), SR‐F1 ectodomain (domain or fragment)
chain: SELDPKGQHVCVASSPSAELQCCAGWRQKDQECTIPICEGPDACQKDEVCVKPGLCRCKPGFFGAHCSSRCPGQYWGPDCRESCPCHPHGQCEPATGACQCQADRWGARCEFPCACGPHGRCDPATGVCHCEPGWWSSTCRRPCQCNTAAARCEQATGACVCKPGWWGRRCSFRCNCHGSPCEQDSGRCACRPGWWGPECQQQCECVRGRCSAASGECTCPPGFRGARCELPCPAGSHGVQCAHSCGRCKHNEPCSPDTGSCESCEPGWNGTQCQQPCLPGTFGESCEQQCPHCRHGEACEPDTGHCQRCDPGWLGPRCEDPCPTGTFGEDCGSTCPTCVQGSCDTVTGDCVCSAGYWGPSCNASCPAGFHGNNCSVPCECPEGLCHPVSGSCQPGSGSRDT
Take B1: the Kd was found to be 790 nM, the off-rate (koff) was determined as 0.0015 s⁻¹ and the kon turned out to be 2000 M⁻¹ s⁻¹.
